For orientation: Kd means the constant that tells how readily two partners part at equilibrium. High values mean a looser complex, low ones a tighter complex. By koff is commonly meant the first-order rate constant of dissociation. A high value points to fast dissociation. One may read the kon as the rate constant with which the complex forms. One may read the EC50 as the concentration giving half of the maximal effect.

Experiment [1] addresses T1, Ebola virus (EBOV) glycoprotein (GP), wild-type, construct not stated (Ebola virus (EBOV), UniProt Q05320 33-650).
T1 sequence: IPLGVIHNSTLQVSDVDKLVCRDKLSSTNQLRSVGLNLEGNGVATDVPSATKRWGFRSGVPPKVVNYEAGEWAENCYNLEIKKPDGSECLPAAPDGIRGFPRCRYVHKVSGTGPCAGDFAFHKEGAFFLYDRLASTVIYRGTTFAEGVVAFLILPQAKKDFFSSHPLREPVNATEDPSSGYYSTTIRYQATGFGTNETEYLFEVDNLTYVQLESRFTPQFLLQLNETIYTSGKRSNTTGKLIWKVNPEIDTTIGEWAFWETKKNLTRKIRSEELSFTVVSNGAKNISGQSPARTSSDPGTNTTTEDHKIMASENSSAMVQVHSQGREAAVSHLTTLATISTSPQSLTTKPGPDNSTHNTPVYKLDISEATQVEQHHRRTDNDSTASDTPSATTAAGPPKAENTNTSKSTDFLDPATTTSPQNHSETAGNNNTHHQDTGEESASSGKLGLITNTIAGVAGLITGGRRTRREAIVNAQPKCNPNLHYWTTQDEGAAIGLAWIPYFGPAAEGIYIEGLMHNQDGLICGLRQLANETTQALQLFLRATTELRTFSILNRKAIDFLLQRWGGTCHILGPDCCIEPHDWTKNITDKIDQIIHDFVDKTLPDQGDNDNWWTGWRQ
Description: cell-based or functional assay.

For experiment [2], the target named is T2, thermolysin-cleaved GP (GPCL) (Ebola virus (EBOV), UniProt Q05320 33-190; Q05320 502-650).
T2 sequence 1: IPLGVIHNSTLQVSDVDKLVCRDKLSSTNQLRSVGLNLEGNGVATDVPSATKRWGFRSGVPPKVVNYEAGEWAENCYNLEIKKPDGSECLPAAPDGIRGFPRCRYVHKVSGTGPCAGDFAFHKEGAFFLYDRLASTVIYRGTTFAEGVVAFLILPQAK
T2 sequence 2: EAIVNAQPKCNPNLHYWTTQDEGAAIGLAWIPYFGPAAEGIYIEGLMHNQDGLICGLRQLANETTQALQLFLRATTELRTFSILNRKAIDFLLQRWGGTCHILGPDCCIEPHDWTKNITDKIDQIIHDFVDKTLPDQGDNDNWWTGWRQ
Put plainly: biolayer interferometry.

Experiment [3] concerns the target T2, thermolysin-cleaved GP (GPCL). Description: ELISA. On the technique in general: An ELISA detects its analyte on a solid surface through an enzyme-linked reagent.

B1: m8C4 (antibody, V domains shown)
VH: EVQLQESGPELKKPGETVKISCKASGYTFTTYGMSWVKQAPGKGLKWMGRINTYSGVPTYADEFKGRFAFSLENSASTAYLQINNLKNEDTATYFCARGDGGHWFANWGQGTLVTVSA
VL: DIQMTQSPSSLSASLGGKVTITCKASQDINKNIAWYQHKPGKGPRLLIWYKSALQPGIPSRFSGSGSGRDYSFSISNLEPEDIATYSCLQYDNLPPTFGGGTKLEIKR
For the molecule B1, the “EC50 of neutralization of luciferase-expressing VSV pseudotype on Vero cells” value in experiment [1] was more than 10 µg/mL.

B2: CA45 (antibody, V domains shown)
VH: QVQLQEWGEGLVKPSETLSLTCAVYGGSISGYYHWNWIRLPPGKGLEWIGNIDNSASTNYNPSLKTRVTISKDTSKNQISLKVRSLTAADTAVYYCARDPGFTIFGVVITSWSGLDSWGQGAVVTVSS
VL: DIQMTQSPSSLSASVGDTVTITCRASQSISNNLAWYQQRPRRAPQLLIYAASNLASGVPSRFSGSGSGTDFTLTISSLQAEDFAAYYCQQHNTLPLTFGGGTKVEI
Turning to B2, in experiment [2], the Kd is less than 0.006 nM, the koff is less than 1e-07 s⁻¹ and the association rate constant (kon) amounted to 16000 M⁻¹ s⁻¹. In addition, the EC50 in experiment [3] worked out at 0.06 nM.

The values are drawn from US20190381162A1 (INTEGRATED BIOTHERAPEUTICS, published 2019).
